# Laboratory results taken from patent US12649008B2, “Peptide receptor radionuclide therapy” (The Regents of the University of California, priority 2020, dated 2026).
# Entries after “also recorded” stand apart in the source; their conditions may differ.
# Experiments:
# [1] = test system: locally advanced, unresectable or metastatic pancreatic adenocarcinoma; assay: Single institution pilot study, 3+3 dose escalation; format: in vivo, human; settings: individual patients
# Source text: Patients first underwent a single microdose of [^68Ga]Ga DOTA-5G PET/CT to assess eligibility for the [^177Lu]Lu DOTA-ABM-5G therapy. Only patients with sufficient lesion uptake (any visualized lesion with SUVmax>2-fold above normal lung or liver) were offered therapy with [^177Lu]Lu DOTA-ABM-5G. The study was designed as a 3+3 dose escalation study with [^177Lu]Lu DOTA-ABM-5G. The treatment regimen consisted of one dose of [^177Lu]Lu DOTA-ABM-5G. The 3+3 design included three patients for the first activity level group (25 mCi) (see Table 4, below). Dose-limiting toxicity (DLT) is defined as any treatment related AE≥grade 3 (G3). In addition, the radiation dose to the kidneys must not exceed 23 Gy and the dose to the bone marrow must not exceed 1.5 Gy. If no DLT occurs within 30 days (after the third patient), 3 patients were then enrolled at the next dose level. Should a patient not be available for complete evaluation of treatment related toxicity within the 30 day DLT window due to non-treatment related issues, the patient was replaced for the purpose of DLT assessment at the same dose level. If DLT attributable to the study treatment is experienced in exactly ⅓ subjects in the first course, 3 more patients (for a total of 6) are treated at that dose level. The dose was escalated if no additional DLT is observed at the expanded dose level (i.e., ⅙ with DLT). Escalation stops as soon as two or more subjects experience DLT attributable to the study drugs. The highest dose (200 mCi limit) with no more than one DLT out of six patients is recommended for Phase II. The radiation dose to the kidneys must not exceed 23 Gy and the dose to the bone marrow must not exceed 1.5 Gy.
# Patients deemed eligible based on the [^68Ga]Ga DOTA-5GPET/CT were scheduled to receive one dose of the [^177Lu]Lu DOTA-ABM-5G therapy within 4 weeks (±7 days) of the [^68Ga]Ga DOTA-5G scan. […] For renal protection purpose, a 4-hour co-infusion of an amino acid solution (containing L-lysine [between 18 g and 24 g] and L-arginine [between 18 g and 24 g] was started 30 minutes prior to the infusion of [^177Lu]Lu DOTA-ABM-5G and continued at a constant rate (250 cc/hr) for a total of 4 hours. The patient was monitored for one hour after completion of the amino acid solution infusion. Administration of the amino acid solution before, during and after the [^177Lu]Lu DOTA-ABM-5G therapy was based on experience with Lu-177 DOTATATE to flush the radionuclide through the proximal tubules and decrease the radiation dose to the kidneys. […]
# The biodistribution and dosimetry was evaluated using nuclear imaging at 1 day and 7 days post-infusion of [^177Lu]Lu DOTA-ABM-5G. […]
# BxPC-3 (αvβ6 (+)) tumors = assay: Blocking study (cold peptide 10 min before radiotracer), biodistribution; format: in vivo, mice; settings: 4 h p.i.
# Method: (§1) Female nu/nu nude mice (6-8 weeks old) were purchased from Charles River Laboratories (Wilmington, MA, USA) and handled according to the UC Davis Institutional Animal Care and Use Committee. BxPC-3 cells (5×10^6) in 100 μl 1:1 GFR-Matrigel: serum-free RPMI were implanted subcutaneously into the left shoulder flank and allowed to grow for approximately 2 weeks (therapy study) and 3 weeks (0.5-1 cm in diameter, for imaging and biodistribution studies). All cells were evaluated with flow cytometry before injection to confirm integrin expression levels. Food and water were available ad libitum.
# (§2) For blocking studies, respective non-chelated cold peptide (30 mg/kg, 10 mg/mL (DOTA-5G) and 48 mg/kg, 16 mg/mL (DOTA-ABM-5G) solution in PBS) was injected 10 min. before the formulated radiotracer. At each time point, the mice (n=3/time point/radiotracer) were anesthetized and sacrificed. The tissues were collected, rinsed with PBS, and the radioactivity of each measured with a gamma counter. Radioactivity concentrations were calibrated, decay-corrected, and expressed as percent of injected dose per gram of tissue (% ID/g).
# [2] = as above; format: in vivo, mice; settings: female, nu/nu nude, mouse, BxPC-3 tumor, iv, total radioactivity; 4 h p.i.; DOTA-ABM-5G 48 mg/kg 10 min before
# Method: as §1, §2
# human serum proteins = assay: Serum protein (albumin) binding by ultrafiltration, human serum; format: in vitro ADME; settings: 37° C.
# Method: The devices were pre-treated with PBS containing Tween 20 (5% v/v) as disclosed in Hausner 2007, followed by triplicate rinses with PBS. An aliquot of each formulated radiotracer in PBS (≤25 μL, 20-60 KBq) was thoroughly mixed with 0.5 mL serum at 37° C. in a microfuge tube. The mixture was incubated at 37° C. for 5 min and an aliquot (50 μL) of was transferred to a tube for γ-counting. The remaining sample was transferred to a Centrifree Ultrafiltration device and centrifuged for 40 min. at 1500×g at ambient temperature (20-24° C.). An aliquot (50 μL) of the filtrate was transferred to a tube for γ-counting. For each radiotracer, a blank was run using 0.5 mL PBS/Tween 20 (5% v/v) instead of serum (n=4) to determine non-specific binding. Following γ-counting, the protein-bound radioactivity was calculated by subtracting the counts measured in the filtrate aliquot (i.e., not protein bound) from the counts in the corresponding serum aliquot. The data are expressed as mean±standard deviation of fraction of radioactivity bound to protein after subtraction of non-specific binding determined in the blank.
structure (smiles),measurement,setting,value
CNC(=O)C(CCCCNC(=O)C(CC(=O)O)NC(=O)CCCNC(=O)CCCc1ccc(I)cc1)NC(=O)CN1CCN2CCN3CCN(CC1)CC(=O)[O][177Lu]([O]C(=O)C2)[O]C(=O)C3 (stereo not shown) [[^177Lu]Lu DOTA-ABM-5G],Current status,[1]; Dose Level 1 (25 mCi),"alive, increase in metastatic; also recorded: alive, stable disease; also recorded: Deceased (patient deteriorated"
same,Renal function over 90 days,[1]; Dose Level 1 (25 mCi),no change
same,Current status,[1]; Dose Level 2 (50 mCi),"alive, no evidence of liver; also recorded: alive"
same,Renal function over 90 days,[1]; Dose Level 2 (50 mCi),no change
same,change of BxPC-3 tumor uptake by blocking (Δ),BxPC-3 (αvβ6 (+)) tumors,−42%
same,tissue uptake at 4 h,[2],4.12 %ID/g
same,albumin (serum protein) binding,human serum proteins,58.1±0.4%
